Assay in all cases: scFv on yeast, soluble CXCL-SA; flow cytometry
The target of test [1] is T1, ^NmCXCL5-SA^C (LIX/mCXCL5 48-118 fused to mouse serum albumin) (mouse, UniProt P50228 48-118; P07724 25-608).
T1 construct: soluble form
As to the method: (§1) In brief, DNA plasmids encoding single protein binder clones were transformed into genetically modified Saccharomyces cerevisiae yeast cells (EBY100 strain) using Frozen-EZ Yeast Transformation II Kit (Zymo Research) and plated on selective SD-CAA solid agar media. Individual colonies were inoculated in 5 mL SD-SCAA cultures, grown to mid-log phase (0D600=2-5) in SD-CAA media at 30° C. with shacking (250 rpm). Cells were induced in galactose-containing SG-CAA media for 20 hours at 20° C. with shacking (250 rpm) as previously described (Angelini, A. et al. Protein Engineering and Selection Using Yeast Surface Display. Methods Mol Biol 1319, 3-36 (2015)). The binding assays were conducted in 96-well plates (Corning) containing 1×10⁴ induced cells per well. […] Yeast cells displaying protein binders were incubated with varying concentration of soluble CXC chemokine fusions (^NCXCL-SA^S) bearing the His6 tag and the primary chicken anti-c-myc epitope tag (1:1000) antibody (Gallus Immunotech) overnight at 4° C. with shaking (150 rpm). […] After primary incubation, cells were pelleted (2500× g for 5 min at 4° C.) and washed twice with 200 μL ice-cold PBSA buffer. Secondary labeling was performed with goat anti-chicken and mouse anti-His6 epitope tag antibodies conjugated to Alexa Fluor dyes at recommended dilutions.

Test [2] deals with T2, ^NmCXCL2-SA^C (MIP-2/mCXCL2 28-100 fused to mouse serum albumin) (mouse, UniProt P10889 28-100; P07724 25-608).
T2 construct: soluble form
The procedure:
as §1

Test [3] concerns the target T3, ^NmCXCL1-SA^C (KC/mCXCL1 25-96 fused to mouse serum albumin) (mouse, UniProt P12850 25-96; P07724 25-608).
T3 construct: soluble form
As to the method: as §1

The target in test [4] is T4, ^NhCXCL1-SA^C (Groα/hCXCL1 35-107 fused to mouse serum albumin) (human; mouse, UniProt P09341 35-107; P07724 25-608).
T4 construct: soluble form; also called Groa
The procedure: as §1

The target of test [5] is T5, ^NhCXCL5-SA^C (ENA-78/hCXCL5 44-114 fused to mouse serum albumin) (human; mouse, UniProt P42830 44-114; P07724 25-608).
T5 construct: soluble form
The procedure:
as §1

Test [6] has as its target T1, ^NmCXCL5-SA^C (LIX/mCXCL5 48-118 fused …). As to the method:
as §1
The source holds these as a separate data set.

Test [7] concerns the target T2, ^NmCXCL2-SA^C (MIP-2/mCXCL2 28-100 …). The procedure:
as §1
The source holds these as a separate data set.

Test [8] has as its target T6, ^NhCXCL11-SA^C (I-TAC/hCXCL11 22-94 fused to mouse serum albumin) (human; mouse, UniProt O14625 22-94; P07724 25-608).
T6 construct: soluble form
The procedure:
as §1

Test [9] has as its target T7, ^NhCXCL6-SA^C (GCP-2/hCXCL6 43-114 fused to mouse serum albumin) (human; mouse, UniProt P80162 43-114; P07724 25-608).
T7 construct: soluble form
As to the method:
as §1

For test [10], the target named is T8, ^NmCXCL11-SA^C (I-Tac/mCXCL11 22-100 fused to mouse serum albumin) (mouse, UniProt Q9JHH5 22-100; P07724 25-608).
T8 construct: soluble form
The procedure: as §1

Test [11] deals with T9, ^NmCXCL10-SA^C (Ip-10/mCXCL10 22-98 fused to mouse serum albumin) (mouse, UniProt P17515 22-98; P07724 25-608).
T9 construct: soluble form
As to the method:
as §1

Test [12] addresses T10, ^NhCXCL10-SA^C (IP-10/hCXCL10 22-98 fused to mouse serum albumin) (human; mouse, UniProt P02778 22-98; P07724 25-608).
T10 construct: soluble form
The procedure:
as §1

The target in test [13] is T11, ^NhCXCL2-SA^C (Groβ/hCXCL2 35-107 fused to mouse serum albumin) (human; mouse, UniProt P19875 35-107; P07724 25-608).
T11 construct: soluble form
As to the method: as §1

The target of test [14] is T12, ^NmCXCL4-SA^C (Pf-4/mCXCL4 30-105 fused to mouse serum albumin) (mouse, UniProt Q9Z126 30-105; P07724 25-608).
T12 construct: soluble form
As to the method: as §1

Test [15] addresses T13, ^NhCXCL4-SA^C (PF-4/hCXCL4 32-101 fused to mouse serum albumin) (human; mouse, UniProt P02776 32-101; P07724 25-608).
T13 construct: soluble form
The procedure: as §1

Test [16] concerns the target T3, ^NmCXCL1-SA^C (KC/mCXCL1 25-96 fused to …). As to the method:
as §1
The source holds these as a separate data set.

In test [17] the target is T4, ^NhCXCL1-SA^C (Groα/hCXCL1 35-107 fused …). The procedure:
as §1
This is another data set of the same source.

Test [18] deals with T14, ^NhCXCL3-SA^C (Groγ/hCXCL3 35-107 fused to mouse serum albumin) (human; mouse, UniProt P19876 35-107; P07724 25-608).
T14 construct: soluble form
The procedure: as §1

The target of test [19] is T15, ^NmCXCL7-SA^C (Nap-2/mCXCL7 48-113 fused to mouse serum albumin) (mouse).
T15 construct: soluble form
T15 chain: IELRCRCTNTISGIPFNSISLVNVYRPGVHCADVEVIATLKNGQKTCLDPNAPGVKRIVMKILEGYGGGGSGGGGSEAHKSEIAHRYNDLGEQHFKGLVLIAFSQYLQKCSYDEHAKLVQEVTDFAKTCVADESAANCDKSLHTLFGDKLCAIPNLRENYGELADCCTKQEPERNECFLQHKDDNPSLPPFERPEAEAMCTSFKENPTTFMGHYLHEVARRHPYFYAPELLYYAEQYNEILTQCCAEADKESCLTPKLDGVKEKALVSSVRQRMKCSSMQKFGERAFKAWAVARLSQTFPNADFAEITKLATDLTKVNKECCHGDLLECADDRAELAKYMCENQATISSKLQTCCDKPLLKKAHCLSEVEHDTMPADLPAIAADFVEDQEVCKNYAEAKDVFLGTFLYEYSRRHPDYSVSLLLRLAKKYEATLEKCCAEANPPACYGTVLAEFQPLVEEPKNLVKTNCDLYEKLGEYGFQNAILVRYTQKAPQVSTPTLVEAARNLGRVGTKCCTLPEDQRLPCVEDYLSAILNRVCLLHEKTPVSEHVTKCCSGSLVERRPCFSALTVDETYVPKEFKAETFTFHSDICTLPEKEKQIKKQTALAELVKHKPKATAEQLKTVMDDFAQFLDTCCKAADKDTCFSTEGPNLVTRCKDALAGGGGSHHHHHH
As to the method: as §1

Test [20] has as its target T16, ^NmCXCL3-SA^C (DCIP-1/mCXCL3 28-100 fused to mouse serum albumin) (mouse, UniProt Q6W5C0 28-100; P07724 25-608).
T16 construct: soluble form
The procedure:
as §1

Test [21] deals with T5, ^NhCXCL5-SA^C (ENA-78/hCXCL5 44-114 …). The procedure:
as §1
This is another data set of the same source.

A further test has as its target five targets (of CK157).
Test [22] deals with T17, ^NhCXCL8-SA^C (IL-8/hCXCL8 28-99 fused to mouse serum albumin) (human; mouse, UniProt P10145 28-99; P07724 25-608).
T17 construct: soluble form
The procedure:
as §1

The target of test [23] is T17, ^NhCXCL8-SA^C (IL-8/hCXCL8 28-99 fused …). As to the method: as §1
This is another data set of the same source.

Test [24] deals with these chemokines (the six ELR+ CXC chemokines recognized by CK138).

Where two headings read alike, the source gives them in different places.

B1: CK157 (scFv)
scFv: DIQMTQSPSSLSASVGDRVTITCRASQSYGGVAWYQQKPGKAPKLLIYSASYLYSGVPSRFSGSRSGTDFTLTISSLQPEDFATYYCQQPSHLITFGQGTEVEIKGTTAASGSSGGSSSGAEVQLVESGGGLVQPGGSLRLSCAASGSNPYYYGGTHWVRQAPGEELEWVASIGSYPGYTDYADSVKGRFTISADTSKNTAYLQMNSLRAEDTAVYYCARHYYWYDATDYWGQGTLVTVSS
notes: CK2 lineage
Turning to B1, the Kd (commonly the free concentration of one partner at which half of the binding sites on the other are occupied at equilibrium, for simple one-to-one binding) in test [1] came out at 57.1 nM; in test [2], 18.2 nM; in test [3] it was 20.6 nM; in [4] it was 36.2 nM; in [5] it was 16.9 nM; in test [6], 96.9 nM. Moreover, the Kd in [7] worked out at 19.9 nM; in [8] it was 131 nM; in test [9], 46.6 nM; in test [10], 124 nM; in test [11], 44.4 nM; in [12], 45.5 nM. The Kd amounted to 57.9 nM in test [13]; 17.1 nM in test [14]; 112 nM in test [15]; 24.3 nM in [16]; 61.1 nM in test [17]; 53.9 nM in test [18]. Besides, the Kd worked out at 13.6 nM in test [19], 17.4 nM in [20] and 26.3 nM in test [21]. This molecule displayed a fold improvement in affinity compared to the initial CK2 with five targets (of CK157) of 20 to 55 fold.

B2: CK138 (scFv)
scFv: AIQMTRSPSSLSASVGDRVTITCRASQYHDGSAAWYQQKPGKAPKLLIYGASYLYSGVPSRFSGSRSGTDFTLTISSLQPEDFATYYCQQSSYSLITFGQGTKVEIKGTTAASGSSGGSSSGAEVQLVESDGGLVQPGGSLRLSCAASGFNLSYYGMHWVRQAPGKGLEWVAYIASYPGYTSYADSVKGRFTISADTSKNTAYLQMNSLRAEDTAVYYCARSGYSYSPYYSWFSAGMNYWGQGALVTVSS
notes: CK1 lineage
Regarding B2, the Kd in test [1] was found to be 193 nM; in test [2], 36.2 nM; in [22] it was 7.4 nM; in [3], 34.8 nM; in test [4], 61.9 nM; in test [5] it was 5.8 nM. Further, the Kd in test [6] worked out at 176 nM; in [7], 29.1 nM; in test [9], 153 nM; in test [11], 500 nM; in test [13], 267 nM; in test [23] it was 6.9 nM. Moreover, the Kd came out at 167 nM in test [15]; 35.7 nM in test [16]; 41.5 nM in [17]; 349 nM in [18]; 10.9 nM in test [20]; 5.8 nM in [21]. In [24], the fold improvement in affinity relative to the parental CK1 lay in the range of 30 to 340 fold.

B3: CK129 (scFv)
scFv: DIQMTQSPSPLSASVGDRVTITCRASQYGGYVAWYQQKPGKAPKLLIYGASLLYSGVPSRFSGGRSGTDFTLTISSLQPEDFATYYCQRGHALITFGQGTKVEIEGTTAASGSSGGSSSGAEVQLVESGGGLVQPGGSLRLSCAASGFNISSYGSMHWVRQAPGKGLEWVASIYPYSSSTYYADSVKGRFTISADTSKNTAYLQMNSLRAEDTAVYYCARGYGPWYAYSYFALDYWGQGTLVTVSS
notes: CK4 lineage
Consider B3, for which the Kd in test [3] is 0.93 nM; in test [4] it was 0.79 nM; in test [13], 13.9 nM; in test [16], 1.1 nM; in test [17], 1 nM; in [18] it was 5.7 nM. Moreover, the “fold increase in affinity (against the parental CK4 clone)” value is 800 fold in test [3] and 50 fold in test [4].

(Values after patent publication US20210246199A1 (MIT, published 2021).)
